From paper PMC4504036 come the findings set out here.

The target of assay [1] is Human factor XII (human).
Assay [2] deals with Human factor XII (human). The source holds these as a separate data set.
The target of assay [3] is Recombinant wild-type phospholipid transfer protein (rPLTP) (human) (UniProt P55058). Put plainly: SPR; BIAcore 3000; rPLTP with C-terminal His-tag captured on anti-His tag monoclonal antibody immobilised on a CM5 chip; factor XII (0-750 nM) or factor XI injected; 50 mM Hepes, 150 mM NaCl, 5 mM CaCl2, pH 7.4; global fit, simple Langmuir model; apparent Kd. A general note: Surface plasmon resonance follows binding to a sensor surface in real time, without labels.

Substance “Recombinant wild-type phospholipid transfer protein (rPLTP) (from UniProt P55058 18-493) (natural protein)” returned an inhibition by rPLTP of sulfatide-induced kallikrein generation (contact activation) in plasma (S2302 amidolytic activity at 6 min) with Human factor XII (human) [1] of 0.69 µg/mL. For the same substance, the inhibition by rPLTP of sulfatide-stimulated factor XII autoactivation in a purified system in the presence of VLDL (factor XIIa amidolytic activity, S2302, at 15 min) with Human factor XII (human) [2] was determined as 1.2 µg/mL.

For the substance Human factor XII (natural protein), in assay [3], the Kd was determined as 0.19 µM; the koff (in general, the first-order rate constant of dissociation) came to 0.006 s⁻¹; the kon (as a rule, the second-order rate constant of association) came to 31000 M⁻¹ s⁻¹.
